To fix the notation:
B1: unnamed (protein)
chain: MRPPWYPLHTPSLAFPLLFLLLSLLGGGARAEGREDPQLLVRVRGGQLRGIRLKAPGGPVSAFLGIPFAEPPVGSRRFMPPEPKRPWSGVLDATTFQNVCYQYVDTLYPGFEGTEMWNPNRELSEDCLYLNVWTPYPRPASPTPVLIWIYGGGFYSGAASLDVYDGRFLAQVEGAVLVSMNYRVGTFGFLALPGSREAPGNVGLLDQRLALQWVQENIAAFGGDPMSVTLFGESAGAASVGMHILSLPSRSLFHRAVLQSGTPNGPWATVSAGEARRRATLLARLVGCPPGGAGGNDTELIACLRTRPAQDLVDHEWHVLPQESIFRFSFVPVVDGDFLSDTPEALINTGDFQDLQVLVGVVKDEGSAFLVYGVPGFSKDNESLISRAQFLAGVRIGVPQASDLAAEAVVLHYTDWLHPEDPTHLRDAMSAVVGDHNVVCPVAQLAGRLAAQGARVYAYIFEHRASTLTWPLWMGVPHGYEIEFIFGLPLDPSLNYTTEERIFAQRLMKYWTNFARTGDPNDPRDSKSPQWPPYTTAAQQYVSLNLKPLEVRRGLRAQTCAFWNRFLPKLLSATDTLDEAERQWKAEFHRWSSYMVHWKNQFDHYSKQERCSDL
B2: unnamed (protein)
chain: B1 chain with Y103N, Y155Q, W317A, A368Y
B3: unnamed (protein)
chain: B1 chain with F326L, F328I, A368Y
B4: unnamed (protein)
chain: B1 chain with A368Y
B5: unnamed (protein)
chain: B1 chain with F326Y, A368Y

Where a chain is given by its changes, count along the chain named.

Substrate in the data set: Acetylcholine
To be noted: pH 7; 22 °C.
As a reminder, the Km is the substrate concentration at which the rate is half of its maximum. For orientation: kcat means the number of substrate molecules converted per active site and unit of time at saturation. On to B1, for which the Km stood at 110 µM and the kcat was 867 s⁻¹.

Regarding B2, the Km turned out to be 230 µM and the kcat worked out at 2500 s⁻¹.

Take B3: the Km amounted to 200 µM and the kcat came out at 200 s⁻¹.

The term kcat/Km denotes the turnover number divided by the Michaelis constant. B4: the Km worked out at 451000 µM, the kcat was found to be 667 s⁻¹ and the kcat/Km came out at 1480 M⁻¹ s⁻¹.

B5: the Km came out at 17 µM and the kcat stood at 102 s⁻¹.

The values above are taken from the PETadex activity labels (doi:10.1021/bi00096a018).
